Measurements published in US20180244785A1 (MERRIMACK PHARMACEUTICALS, published 2018).
Each block holds one binder with its values, some of them ahead of it.

How the values were obtained:
[1] = target: FGFR1 on tumour cells (UniProt P11362 22-822); experiment: cell-based or functional assay
[2] = target: T1, 6His-Fc-FGFR4 (human, UniProt P22455 144-369); experiment: competition ELISA, blocks 6His-Fc-FGFR4 binding to coated FGF2
T1 construct: not shown: 6His tag and Fc as named in '6His-Fc-FGFR'
T1 sequence: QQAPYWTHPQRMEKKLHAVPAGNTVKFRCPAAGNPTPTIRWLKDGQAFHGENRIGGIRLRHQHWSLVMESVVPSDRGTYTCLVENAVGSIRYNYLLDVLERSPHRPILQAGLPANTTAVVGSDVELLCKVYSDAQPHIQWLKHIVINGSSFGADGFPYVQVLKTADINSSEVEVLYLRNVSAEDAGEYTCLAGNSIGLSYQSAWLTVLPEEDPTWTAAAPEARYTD
Description: (§1) ELISA plates were coated with 50 ug/ml Heparin Sulfate (HSPG) (Sigma Aldrich) and incubated overnight at room temperature. Plates were then washed extensively with PBS containing 0.05% v/v Tween20 (PBST). Plates were then blocked with 2.5% BSA in PBST for one hour and washed extensively as before. 40-60 μL of FGF1 or FGF2 was then added to each well at 40 μg/ml and allowed to bind at room temperature for 2 hours. Plates were then washed extensively with PBST as before. Stock solutions of each 6His-Fc-FGFR (FGFR1-4) were prepared at 500 ng/ml in 2% v/v BSA-PBST and each antibody was prepared as a 2×-dilution series in 2% v/v BSA-PBST. Antibodies dilution series and 6His-Fc-FGFR1-4 were diluted in a 1:1 fashion and immediately added to the relative wells of the plate and allowed to bind for 2 hours at room temperature. Plates were washed extensively as before with PBST and the remaining fraction of bound 6His-Fc-FGFR was detected using a polyclonal-anti-His-6-HRP conjugated antibody (Abcam) for one hour at room temperature. After extensive washing with PBST, 50 μl of Pierce Chemiluminescent substrate (Thermo Fisher Scientific, Rockford, USA) was added and plates were measured on an Envision plate reader (Perkin Elmer). Raw data was background corrected and plotted using Prism software. […]

[3] = target: T2, recombinant human FGFR4 Fc fusion (human, UniProt P22455 144-369); experiment: solid phase ELISA on coated FGFR-Fc
T2 construct: 19 used; also called FGFR4c; not shown: Fc part of the FGFR-Fc fusion
T2 sequence: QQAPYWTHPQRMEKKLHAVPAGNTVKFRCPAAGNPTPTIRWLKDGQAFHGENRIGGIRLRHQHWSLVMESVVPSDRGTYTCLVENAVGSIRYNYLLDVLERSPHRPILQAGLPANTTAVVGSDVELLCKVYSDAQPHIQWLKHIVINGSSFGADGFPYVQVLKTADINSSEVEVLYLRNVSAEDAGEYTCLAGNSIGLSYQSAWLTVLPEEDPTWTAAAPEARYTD
Description: (§2) For the ELISA assay, the ability of each mAb to cross react with the […] FGF receptors was tested across a concentration curve in order to determine the relative binding across FGFR1-4. FGFR2IIIb was used as a negative control. Black 384-well Maxisorp plates were coated overnight with FGFR-Fc fusions in PBS to 1 ug/ml before washing and blocking with 75 ul/well Pierce Protein Free (PBS) Blocking Buffer for 1 hour at RT. Antibody dilutions were prepared freshly in 1% BSA- PBS+0.05% Tween20 and 25 ul of each antibody was added to wells in duplicate. Plates were incubated at RT for 2 hours, followed by addition of detection antibody at 50 ng/ml in 1% BSA PBS, 0.05% Tween20. ECL substrate (Pierce) was added and plates were read on the EnVision plate reader.

[4] = target: T3, recombinant human FGFR3c Fc fusion (human, UniProt P22607 141-372); experiment: solid phase ELISA on coated FGFR-Fc
T3 construct: also called FGFR3IIIc; not shown: Fc part of the FGFR-Fc fusion
T3 sequence: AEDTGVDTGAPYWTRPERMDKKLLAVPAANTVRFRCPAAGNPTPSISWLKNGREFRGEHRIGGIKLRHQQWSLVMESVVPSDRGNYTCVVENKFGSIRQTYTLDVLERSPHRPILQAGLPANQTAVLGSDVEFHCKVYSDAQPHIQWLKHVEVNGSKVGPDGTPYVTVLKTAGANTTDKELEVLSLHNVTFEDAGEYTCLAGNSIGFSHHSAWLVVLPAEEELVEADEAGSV
Description: as §2

[5] = target: T4, recombinant human FGFR2c Fc fusion (human, UniProt P21802 148-377); experiment: solid phase ELISA on coated FGFR-Fc
T4 construct: also called FGFR2IIIc; not shown: Fc part of the FGFR-Fc fusion
T4 sequence (P21802 148-377): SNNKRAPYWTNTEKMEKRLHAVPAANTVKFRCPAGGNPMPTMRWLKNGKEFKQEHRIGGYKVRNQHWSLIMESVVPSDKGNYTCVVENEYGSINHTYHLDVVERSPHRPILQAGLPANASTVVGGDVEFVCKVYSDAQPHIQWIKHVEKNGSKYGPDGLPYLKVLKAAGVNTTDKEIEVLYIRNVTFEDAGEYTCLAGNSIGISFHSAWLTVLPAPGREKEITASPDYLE
Description: as §2

[6] = target: T5, recombinant human FGFR1c Fc fusion (human, UniProt P11362 141-376); experiment: solid phase ELISA on coated FGFR-Fc
T5 construct: also called FGFR1IIIc; not shown: Fc part of the FGFR-Fc fusion
T5 sequence: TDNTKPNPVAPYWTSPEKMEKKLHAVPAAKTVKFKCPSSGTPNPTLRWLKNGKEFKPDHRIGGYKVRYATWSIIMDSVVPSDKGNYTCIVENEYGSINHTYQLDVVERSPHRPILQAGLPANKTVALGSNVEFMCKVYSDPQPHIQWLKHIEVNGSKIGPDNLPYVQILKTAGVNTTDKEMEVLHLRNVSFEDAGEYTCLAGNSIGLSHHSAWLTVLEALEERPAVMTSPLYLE
Description: as §2

[7] = target: T6, 6His-Fc-FGFR1c (human, UniProt P11362 141-376); experiment: competition ELISA, blocks 6His-Fc-FGFR1c binding to coated FGF2
T6 construct: not shown: 6His tag and Fc as named in '6His-Fc-FGFR'
T6 sequence: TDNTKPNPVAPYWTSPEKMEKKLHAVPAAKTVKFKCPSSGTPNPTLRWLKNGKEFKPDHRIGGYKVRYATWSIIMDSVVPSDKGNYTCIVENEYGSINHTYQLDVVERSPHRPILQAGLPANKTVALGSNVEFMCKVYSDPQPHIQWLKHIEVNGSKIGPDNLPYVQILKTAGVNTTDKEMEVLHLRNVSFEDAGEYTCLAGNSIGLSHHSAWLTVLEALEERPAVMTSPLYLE
Description: as §1

[8] = target: soluble FGFR2c receptor protein (human, UniProt P21802 148-377); experiment: BLI Octet RED96, antibody on anti-hIgG Fc tip
Sequence of soluble FGFR2c receptor protein (P21802 148-377): as the sequence (P21802 148-377) above
In short: (§3)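 Bio-layer interferometry: antibodies captured on anti-human IgG Fc tips for 120 s, PBS baseline 60 s, then 300 s association with soluble receptor and 600 s dissociation in PBS. Antibodies and receptors prepared at 300 nM in PBS; kinetics fitted to a 1:1 binding model.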

[9] = target: T7, soluble FGFR3c receptor protein (human, UniProt P22607 141-372); experiment: BLI Octet RED96, antibody on anti-hIgG Fc tip
T7 sequence: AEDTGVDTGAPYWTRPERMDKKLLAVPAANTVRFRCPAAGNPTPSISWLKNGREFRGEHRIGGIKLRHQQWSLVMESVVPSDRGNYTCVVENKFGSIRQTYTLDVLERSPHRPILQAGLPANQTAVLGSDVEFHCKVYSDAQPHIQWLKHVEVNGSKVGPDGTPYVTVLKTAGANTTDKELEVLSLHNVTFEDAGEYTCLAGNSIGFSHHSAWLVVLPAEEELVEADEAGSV
In short: as §3

[10] = target: T8, soluble FGFR1c receptor protein (human, UniProt P11362 141-376); experiment: BLI Octet RED96, antibody on anti-hIgG Fc tip
T8 sequence: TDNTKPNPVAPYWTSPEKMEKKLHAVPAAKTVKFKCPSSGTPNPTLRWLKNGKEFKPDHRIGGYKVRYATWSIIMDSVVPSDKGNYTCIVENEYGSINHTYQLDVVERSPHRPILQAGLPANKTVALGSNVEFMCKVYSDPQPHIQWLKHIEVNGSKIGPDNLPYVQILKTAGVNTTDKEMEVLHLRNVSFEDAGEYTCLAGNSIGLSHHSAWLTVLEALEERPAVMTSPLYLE
In short: as §3

[11] = target: T9, soluble FGFR4 receptor protein (human, UniProt P22455 144-369); experiment: BLI Octet RED96, antibody on anti-hIgG Fc tip
T9 sequence: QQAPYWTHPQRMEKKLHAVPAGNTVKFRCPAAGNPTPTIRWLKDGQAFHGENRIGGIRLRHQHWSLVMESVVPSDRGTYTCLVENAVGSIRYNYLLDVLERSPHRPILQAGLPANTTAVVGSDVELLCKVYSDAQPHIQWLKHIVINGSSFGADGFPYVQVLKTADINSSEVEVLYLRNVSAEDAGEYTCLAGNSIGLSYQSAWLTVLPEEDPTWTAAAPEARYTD
In short: as §3

[12] = target: T2, recombinant human FGFR4 Fc fusion; experiment: ELISA, scFv on coated FGFR-Fc
Description: (§4) To characterize the novel anti-FGFR antibodies, their relative ability to bind to each individual FGFR in vitro was compared. A solid phase-based ELISA was used to measure the relative binding of the candidate antibodies to immobilized recombinant human FGFR1c, FGFR2c, FGFR3c, and FGFR4. EC50 binding curves were generated for a subset of candidates (FIGS. 3A-3D, respectively; Table 1).
as §2

[13] = target: T3, recombinant human FGFR3c Fc fusion; experiment: ELISA, scFv on coated FGFR-Fc
Description: as §4, §2

[14] = target: T10, FGFR2IIIb Fc fusion (negative control) (human); experiment: ELISA, scFv on coated FGFR-Fc
T10 construct: also called FGFR2b; not shown: Fc part of the FGFR-Fc fusion
T10 chain: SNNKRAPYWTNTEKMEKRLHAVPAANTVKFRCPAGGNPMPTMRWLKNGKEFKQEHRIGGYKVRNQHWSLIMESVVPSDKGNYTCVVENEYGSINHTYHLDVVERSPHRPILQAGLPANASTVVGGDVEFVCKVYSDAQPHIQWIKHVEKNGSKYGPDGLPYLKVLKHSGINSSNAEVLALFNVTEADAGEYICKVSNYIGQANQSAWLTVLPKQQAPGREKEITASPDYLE
Description: as §4, §2

[15] = target: T4, recombinant human FGFR2c Fc fusion; experiment: ELISA, scFv on coated FGFR-Fc
Description: as §4, §2

[16] = target: T5, recombinant human FGFR1c Fc fusion; experiment: ELISA, scFv on coated FGFR-Fc
Description: as §4, §2

Sequence of FGFR1 on tumour cells (P11362 22-822): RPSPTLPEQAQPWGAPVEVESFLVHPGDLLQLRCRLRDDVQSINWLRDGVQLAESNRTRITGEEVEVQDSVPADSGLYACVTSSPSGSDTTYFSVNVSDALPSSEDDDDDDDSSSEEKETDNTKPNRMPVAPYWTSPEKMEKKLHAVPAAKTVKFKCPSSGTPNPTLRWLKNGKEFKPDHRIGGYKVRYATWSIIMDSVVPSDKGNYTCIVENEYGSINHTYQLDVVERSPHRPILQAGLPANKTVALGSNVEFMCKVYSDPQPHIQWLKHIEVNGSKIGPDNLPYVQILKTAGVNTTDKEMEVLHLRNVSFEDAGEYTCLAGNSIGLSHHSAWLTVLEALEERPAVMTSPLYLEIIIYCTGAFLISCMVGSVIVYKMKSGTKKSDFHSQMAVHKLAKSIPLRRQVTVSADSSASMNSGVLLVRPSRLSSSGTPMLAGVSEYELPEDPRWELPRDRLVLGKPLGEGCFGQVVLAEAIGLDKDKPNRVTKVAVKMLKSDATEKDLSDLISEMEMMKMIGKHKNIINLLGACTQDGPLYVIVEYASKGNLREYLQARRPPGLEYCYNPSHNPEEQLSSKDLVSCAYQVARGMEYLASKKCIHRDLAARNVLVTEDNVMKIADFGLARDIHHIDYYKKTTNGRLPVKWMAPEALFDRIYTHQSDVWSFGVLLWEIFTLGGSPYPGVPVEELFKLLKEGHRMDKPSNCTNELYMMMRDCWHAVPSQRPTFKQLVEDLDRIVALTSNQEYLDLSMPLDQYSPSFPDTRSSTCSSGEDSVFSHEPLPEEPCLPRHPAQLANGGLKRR

IC50 of pERK inhibition (AlphaScreen SureFire) in NCI-H1581 cells [1]: 1.91 nM | IC50 [2]: 14 nM | EC50 [3]: 13.1 nM | EC50 [4]: 0.264 nM | EC50 [5]: 0.0325 nM | EC50 [6]: 0.0242 nM | IC50 [7]: 4.16 nM | Kd [8]: 8.75 nM | koff [8]: 0.00142 s⁻¹ | kon [8]: 147000 M⁻¹ s⁻¹ | Kd [9]: 37.6 nM | koff [9]: 0.00286 s⁻¹ | kon [9]: 75600 M⁻¹ s⁻¹ | Kd [10]: 20 nM | koff [10]: 0.00129 s⁻¹ | kon [10]: 57000 M⁻¹ s⁻¹ | Kd [11]: 40.3 nM | koff [11]: 0.00248 s⁻¹ | kon [11]: 60600 M⁻¹ s⁻¹
B1: Ab92 (antibody, human IgG2, kappa, V domains shown)
VH: EVQLLESGGGVVQPGRSLRLSCAASGFTFSSYAMHWVRQAPGKGLEWVAVISYDGSNKYYADSVKGRFTISRDNSKNTLSLQMNSLRVEDTAIYYCVRGAGHGFPTGPDGFDIWGQGTMVTVSS
VL: DIVMTQTPLSLSVTPGQPASISCRSSRSLLHSDGKTYVYWYVQKSGQPPQLLIYELSNRFSGVPDRFSGSGSRTDFTLKISRVEAEDVGVYYCMQYVEAPLTFGGGTKVEIKR
notes: format in the assays not spelled out

EC50 [12]: 72 nM | EC50 [13]: 77.2 nM | EC50 [14]: ~557000 nM | EC50 [15]: 75.7 nM | EC50 [16]: 129 nM
B2: Ab14 (scFv format) (scFv)
scFv: EVQLVETGGGLIQPGGSLRLSCVASGFTVSSNYMSWVRQAPGKGLEWVSVIFSDGTTYYADSVKGRFTISRDNSKNTLYLQMNSLKTEDTAVYYCVAGPANGAYDIWGQGTMVTVSSASTGGGSGGGGSNIQMTQSPSILSASVGDRVTITCRASQSISNWLAWYQQKPGKAPKLLIFRASTLESGVPSRFSGSGSGAEFNLTISSLQPDDFATYYCQQYNVYSGTFGQGTKVEIKRTVAAPSHHHHHH
notes: also called FGF#24

EC50 [12]: 0.506 nM | EC50 [13]: 25.9 nM | EC50 [16]: 0.247 nM
B3: Ab4 (scFv format) (scFv)
scFv: EVQLLESGGGVVQPGRSLRLSCAASGFTFSSYAMHWVRQAPGKGLEWVALISYDGSNKYYADSVKGRFTISRDNSKNTLYLQMNSLRAEDTAIYYCVRGAGRGYTYGPDGFDIWGQGTMVTVSSASTGGGSGGGGSDIVMTQTPLSLSVTPGQPASIFCKSSQSLIFGDGKTYLYWYLQKPGQPPRLLIYQVSNRFSGVPDRFSGSGAGTDFTLKISRVEAEDVGVYYCMQAKQFPWTFGQGTKLEIKRTVAAPSHHHHHH
notes: also called FGF#10
